Data on three molecules can be found in patent US20260097134A1, “COMPOSITIONS AND METHODS FOR PRECISE EDITING OF HUMAN DYSTROPHIN” (Mammoth Biosciences, Inc., priority 2023, published 2026).

The test system of experiment [1] is mouse PCSK9 gene. Nature of the experiment: In vivo editing of PCSK9 in muscle tissues via AAV9-4A delivery of CasPhi.12 and CasM.265466 variants, indels by NGS. Also on record: species or system C57BL/6J mice. Conditions: for inducing indels in vivo at the PCSK9 locus across different muscle tissues: summary in words. The source says: The purpose of the study was to assess the capability of two effector protein variants, CasPhi.12 L26R (a variant of CasPhi.12) and CasM.265466 D220R (a variant of CasM.265466), to edit nucleic acid sequences within muscle tissues in vivo. The study focused on PCSK9 as an exemplary gene target.
In this study, an AAV9-4A vector was employed as the delivery vehicle for introducing the effector protein and gRNA into the specific target tissues. The DNA encoding the effector protein (e.g., SaCas9, CasPhi.12 L26R, or CasM.265466 D220R) and its corresponding promoter (e.g., ck8e or spc5), along with the DNA encoding the gRNA containing the targeting spacer sequence specific to PCSK9 (referred to as PCSK9 in the plasmid) and its u6 promoter were cloned into the AAV9-4A plasmid between the AAV inverted terminal repeats (ITRs), creating AAV9 constructs as follows: • 1) pssAAV-ITR-u6-PCSK9-ck8e-saCas9-bGHpolya-ITR (PL26295) • 2) pssAAV-ITR-u6-PCSK9-ck8e-L26R-wpre-hGHpolya-ITR (PL26297) • 3) pssAAV-ITR-u6-PCSK9-spc5-12-L26R-wpre-hGHpolya-ITR (PL31718) • 4) pssAAV-ITR-u6-PCSK9-ck8e-D220R-wpre-hGHpolya-ITR (PL31719) • 5) pssAAV-ITR-u6-PCSK9-spc5-12-D220R-wpre-hGHpolya-ITR (PL31720) • 6) pscAAV-ITR-u6-PCSK9-Spc5-12-D220R-HSVpolyA-ITR (PL31721)
The sequences of the gRNA designed for use in conjunction with SaCas9, CasPhi.12 L26R, or CasM.265466 D220R for targeting the mouse PCSK9 gene are provided in TABLE 14.
6-week old male C57BL/6J mice were given a single intravenous (IV) bolus through the tail vein using a 1.0 cc syringe with a 27G-⅝″ needle or a single intramuscular (IM) bolus into the gastrocnemius.
4 weeks after the treatment, the mice were euthanized for assessment. Before collecting the tissues, the mice underwent whole-body perfusion via the left ventricle using 5.0-10.0 mL of PBS to remove any remaining blood from the tissues. Tissue samples weighing 100 mg were then dissected from the liver, heart, gastrocnemius, diaphragm, pectoral, and masseter, respectively, and placed on a plate for subsequent Next-Generation Sequencing (NGS) analysis. For the intramuscular (IM) groups, both the left and right gastrocnemius were weighed and harvested. For all other groups, only the left gastrocnemius was weighed and harvested.
The genomic DNA isolated from the muscle tissues was subject to NGS and aligned to a reference DNA sequence for the analysis of insertions or deletions (indels).

Experiment [2] has as its system DMD. The experiment is described as follows: DMD exon precise editing in HEK293T cells with CasPhi.12 engineered variant, MCP-RT and retRNA, Amplicon Sequencing. The note with it: MCP-RT SEQ ID NO: 1608, retRNA SEQ ID NO: 1590, guide SEQ ID NO: 1327, 72 hours. It is filed as cell-based, human. Here is the method:
HEK293T cells were transfected with plasmids encoding effector protein CasPhi.12 L26R, I471T, S223P, D703G (SEQ ID NO: 1607), a reverse transcriptase (RT) (SEQ ID NO: 1608), a retRNA (SEQ ID NO: 1590), and a guide nucleic acid targeting DMD (SEQ ID NO: 1327). The effector protein was not linked to the RT, but the RT was fused to an MS2 coat protein (MCP) capable of binding an MS2 aptamer loop in the retRNA. Cells were harvested 72 hours later and cell lysates were prepared for Amplicon Sequencing. The percentage of reads containing precise edits were analyzed.

B1: CasM.265466 D220R: variant of CasM.265466, SEQ ID NO: 1602; delivered encoded in AAV9-4A vectors PL31719, PL31720, PL31721 (protein)
chain: MSVLTRKVQLIPVGDKEERDRVYKYLRDGIEAQNRAMNLYMSGLYFAAINEASKEDRKELNQLYSRIATSSKGSAYTTDIEFPTGLASTSTLSMAVRQDFTKSLKDGLMYGRVSLPTYRKDNPLFVDVRFVALRGTKQKYNGLYHEYKSHTEFLDNLYSSDLKVYIKFANDITFQVIFGNPRKSSALRSEFQNIFEEYYKVCQSSIQFSGTKIILNMAMRIPDKEIELDEDVCVGVDLGIAIPAVCALNKNRYSRVSIGSKEDFLRVRTKIRNQRKRLQTNLKSSNGGHGRKKKMKPMDRFRDYEANWVQNYNHYVSRQVVDFAVKNKAKYINLENLEGIRDDVKNEWLLSNWSYYQLQQYITYKAKTYGIEVRKINPYHTSQRCSCCGYEDAGNRPKKEKGQAYFKCLKCGEEMNADFNAARNIAMSTEFQSGKKTKKQKKEQHENK
In the case of B1, the indel rate result in experiment [1] (diaphragm, PL31719 vector, IV administration, 4 weeks after treatment) is “about 10%”; in experiment [1] (heart, PL31719 vector, IV administration, 4 weeks after treatment), “about 20%”; in experiment [1] (heart, second statement ('Additionally'), vector PL31719, IV administration), “about 11%”; in experiment [1] (left gastrocnemius, PL31719 vector, IV administration, 4 weeks after treatment), “about 15%”; in experiment [1] (left gastrocnemius, second statement ('Additionally'), vector PL31719, IV administration), “about 10%”; in experiment [1] (liver, PL31719 vector, IV administration, 4 weeks after treatment) it was “about 25%”. Moreover, the indel rate entry is recorded as “about 5%” in experiment [1] (masseter, PL31719 vector, IV administration, 4 weeks after treatment); “about 13%” in experiment [1] (pectoral, PL31719 vector, IV administration, 4 weeks after treatment); “about 3%” in experiment [1] (pectoral, second statement ('Additionally'), vector PL31719, IV administration). Further, the “fold greater indel rate in the heart compared to SaCas9” value in experiment [1] (heart, versus SaCas9 delivered in the PL26295 vector via IV administration) is reported as “approximately 2 fold”. The “inducing indels in vivo at the PCSK9 locus across different muscle tissues” value in experiment [1] is “highly efficient”.

B2: CasPhi.12 L26R: variant of CasPhi.12, SEQ ID NO: 1603; delivered encoded in AAV9-4A vectors PL26297 or PL31718 (protein)
chain: MIKPTVSQFLTPGFKLIRNHSRTAGRKLKNEGEEACKKFVRENEIPKDECPNFQGGPAIANIIAKSREFTEWEIYQSSLAIQEVIFTLPKDKLPEPILKEEWRAQWLSEHGLDTVPYKEAAGLNLIIKNAVNTYKGVQVKVDNKNKNNLAKINRKNEIAKLNGEQEISFEEIKAFDDKGYLLQKPSPNKSIYCYQSVSPKPFITSKYHNVNLPEEYIGYYRKSNEPIVSPYQFDRLRIPIGEPGYVPKWQYTFLSKKENKRRKLSKRIKNVSPILGIICIKKDWCVFDMRGLLRTNHWKKYHKPTDSINDLFDYFTGDPVIDTKANVVRFRYKMENGIVNYKPVREKKGKELLENICDQNGSCKLATVDVGQNNPVAIGLFELKKVNGELTKTLISRHPTPIDFCNKITAYRERYDKLESSIKLDAIKQLTSEQKIEVDNYNNNFTPQNTKQIVCSKLNINPNDLPWDKMISGTHFISEKAQVSNKSEIYFTSTDKGKTKDVMKSDYKWFQDYKPKLSKEVRDALSDIEWRLRRESLEFNKLSKSREQDARQLANWISSMCDVIGIENLVKKNNFFGGSGKREPGWDNFYKPKKENRWWINAIHKALTELSQNKGKRVILLPAMRTSITCPKCKYCDSKNRNGEKFNCLKCGIELNADIDVATENLATVAITAQSMPKPTCERSGDAKKPVRARKAKAPEFHDKLAPSYTVVLREAV
Turning to B2, the “indel rate in the PCSK9 gene” value in experiment [1] (heart, PL26297 vector, IV administration, 4 weeks after treatment) is given as “about 8%”; in experiment [1] (heart, PL31718 vector, IV administration, 4 weeks after treatment) it was “about 8%”; in experiment [1] (masseter, PL26297 vector, IM administration, 4 weeks after treatment), “about 3%”; in experiment [1] (right gastrocnemius, PL26297 vector, IM administration, 4 weeks after treatment) it was “about 5%”. Also, the “inducing indels in vivo at the PCSK9 locus across different muscle tissues” value in experiment [1] was “highly efficient”.

B3: CasPhi.12 L26R, I471T, S223P, D703G: CasPhi.12 engineered variant, SEQ ID NO: 1607 (protein)
chain: MIKPTVSQFLTPGFKLIRNHSRTAGRKLKNEGEEACKKFVRENEIPKDECPNFQGGPAIANIIAKSREFTEWEIYQSSLAIQEVIFTLPKDKLPEPILKEEWRAQWLSEHGLDTVPYKEAAGLNLIIKNAVNTYKGVQVKVDNKNKNNLAKINRKNEIAKLNGEQEISFEEIKAFDDKGYLLQKPSPNKSIYCYQSVSPKPFITSKYHNVNLPEEYIGYYRKPNEPIVSPYQFDRLRIPIGEPGYVPKWQYTFLSKKENKRRKLSKRIKNVSPILGIICIKKDWCVFDMRGLLRTNHWKKYHKPTDSINDLFDYFTGDPVIDTKANVVRFRYKMENGIVNYKPVREKKGKELLENICDQNGSCKLATVDVGQNNPVAIGLFELKKVNGELTKTLISRHPTPIDFCNKITAYRERYDKLESSIKLDAIKQLTSEQKIEVDNYNNNFTPQNTKQIVCSKLNINPNDLPWDKMTSGTHFISEKAQVSNKSEIYFTSTDKGKTKDVMKSDYKWFQDYKPKLSKEVRDALSDIEWRLRRESLEFNKLSKSREQDARQLANWISSMCDVIGIENLVKKNNFFGGSGKREPGWDNFYKPKKENRWWINAIHKALTELSQNKGKRVILLPAMRTSITCPKCKYCDSKNRNGEKFNCLKCGIELNADIDVATENLATVAITAQSMPKPTCERSGDAKKPVRARKAKAPEFHGKLAPSYTVVLREAV
For B3, in experiment [2], the “precise editing, average (percentage of reads containing precise edits)” value worked out at 1.6% and the “precise editing, one replicate” value is 2.1%.
